{"source": "patent US12714749B2", "about": "“Anti-CK8 antibody and exosome compositions, methods of making, and methods of treating” (PEAK WAY GROUP INC., priority 2022, dated 2026)", "molecules": {"B1": {"name": "CK8-1R5: mouse monoclonal antibody (IgG1) specifically binding to CK8; heavy chain variable region SEQ ID NO: 1, light chain SEQ ID NO: 2 (antibody, V domains shown)", "VH": "EVQLVESGGGLVQPGGSLRLSCAASGFSLSIPYIYWVRQAPGKGLEWVGAQGCGNFYLGWFGVMSRFTISKDNSKNTLYLQMNSLRAEDTAVYYCARFYGMVEIEHVEDVWGQGTLVTVSS", "VL": "AYQMTQSPSSVSASVGDRVTITCVQPKPHPMCRKWYQQKPGKAPKLLIYMQKDQDNGVPSRFSGSGSGTDFTLTISSLQPEDFATYYCFFPRSRTVCDPKEFGGGTKVEIK", "modifications": "Glu Val Gln Leu Val Glu Ser Gly Gly Gly Leu Val Gln Pro Gly Gly Ser Leu Arg Leu Ser Cys Ala Ala Ser Gly Phe Ser Leu Ser Ile Pro Tyr Ile Tyr Trp Val Arg Gln Ala Pro Gly Lys Gly Leu Glu Trp Val Gly Ala Gln Gly Cys Gly Asn Phe Tyr Leu Gly Trp Phe Gly Val Met; The amino acid sequence of the present application is artificially synthesized"}}, "key": {"[1]": {"tested_on": "MCF-7/MX cells", "test": "SRB method, sensitivity of cells to chemotherapy drugs", "type": "cell-based", "settings": "Homo sapiens, MCF7/MX, read-out: IC50 of chemotherapy drug", "procedure": "The SRB method was used to detect the sensitivity of cells to chemotherapy drugs: 800 μg/L mitoxantrone was added in the process of culturing MCF-7/MX cells to maintain drug resistance, and the drug administration stopped two weeks before experiment. 100 μg/mL CK8-1R5 monoclonal antibody and/or 100 μg/mL BCRP inhibitor KS176 (Bai Olette, product No.: M01428) were added into cell culture wells of MCF-7/MX cells, and the culture medium was added for blank control. After 24 hours of culture, digestive cells were inoculated into a 96-well plate, with 2000 cells/well, and 3 double wells. The cells were continued to be cultured for 24 h until complete adherence. After adding different concentrations of chemotherapy drugs (mitoxantrone, topotecan, and daunorubicin) to act for 48 h, the culture was terminated. 50 IA of pre-cooled 50% (mass/volume) trichloroacetic acid was added into each well for immobilizing cells, and the culture plate was transferred into a refrigerator at 4° C. after standing for 1 h; the culture plate was taken, each well was washed with deionized water 5 times to remove TCA, and then dried in air; after complete drying, 100 μl of 0.4% SRB prepared with 1% acetic acid was added into each well and stained for 30 min at room temperature, and then the solution in each well was discarded; the well was washed 5 times using 1% acetic acid to remove unbound dye, and dried in air; 150 μl of 10 mM Tris alkaline solution with pH 10.5 was used for dissolving the sample in each well, the sample was oscillated for 5 min on a flat oscillator, and the absorbance of each well at 490 nm was measured on a BioRad microplate reader. The IC50 value was calculated using Prism software."}, "[2]": {"biological_target": "T1, CK8 protein (Homo sapiens, UniProt P05787)", "T1 construct": "made in house; host or cells: E. coli BL21 (DE3), vector pET-28a(+)", "T1 sequence (P05787 1-483)": "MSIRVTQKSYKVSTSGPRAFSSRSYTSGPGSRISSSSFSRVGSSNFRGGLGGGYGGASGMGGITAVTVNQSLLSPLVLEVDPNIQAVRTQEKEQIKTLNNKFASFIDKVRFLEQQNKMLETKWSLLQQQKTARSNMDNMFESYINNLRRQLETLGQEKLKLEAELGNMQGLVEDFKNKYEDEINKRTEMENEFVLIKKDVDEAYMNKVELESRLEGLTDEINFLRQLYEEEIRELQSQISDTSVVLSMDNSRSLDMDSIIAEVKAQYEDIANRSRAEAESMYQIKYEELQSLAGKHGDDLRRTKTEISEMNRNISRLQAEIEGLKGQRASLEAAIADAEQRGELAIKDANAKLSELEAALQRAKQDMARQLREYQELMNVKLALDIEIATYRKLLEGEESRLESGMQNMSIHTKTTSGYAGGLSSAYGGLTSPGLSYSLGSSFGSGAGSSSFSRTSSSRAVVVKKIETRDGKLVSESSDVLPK", "test": "Indirect ELISA titer of monoclonal antibody", "type": "binding", "procedure": "The titer of monoclonal antibodies was determined using an indirect ELISA method. An ELIASA plate (100 μl/well) was coated with […] of purified recombinant CK8 protein overnight at 4° C., and sealed for 1 h at 10% BSA room temperature. Different concentrations of CK8-1R5 monoclonal antibodies subjected to multiple dilution were added respectively, and incubated at 37° C. for 1 h. After washing 3 times with 0.05% PBST, HRP labeled sheep anti-mouse IgG with a dilution of 1:2000 was added, and the obtained mixture was incubated at 37° C. for 1 h and then washed. A developing agent ABTS was added, and the absorbance (A) value at a wavelength of 405 nm was read on microplate reader. Simultaneously, SP2/0 myeloma cell culture supernatant was used as negative control. The highest dilution ratio of the sample that produces a positive reaction was used as its potency."}, "[3]": {"biological_target": "T1, CK8 protein", "test": "Specificity identification by ELISA", "type": "binding", "settings": "plate coated with CK8 protein, MCF7 cell lysate, BSA, Escherichia coli lysate, NIH3T3 lysate; FIG. 3", "procedure": "Specificity identification: each 1 μg of CK8 protein, MCF7 cell lysate, BSA, Escherichia coli lysate and mouse fibroblast NIH3T3 lysate was used to coat the ELISA plate, with PBS wells as blank control. After washing with PBS, 2.5% skimmed milk was added and the plate was sealed at room temperature for 1 h. After washing with PBS, 1:10 diluted cell culture supernatant (monoclonal antibody, primary antibody) was added, the plate was incubated at 37° C. for 1 and washed with 0.05% PBST 3 times, 1:2000 diluted HRP labeled sheep anti-mouse IgG (second antibody) was added, washed after incubation at 37° C. for 1 h, a developing agent ABTS was added, and the absorbance (A) value at 405 nm wavelength was read on the microplate reader."}, "[4]": {"biological_target": "T1, CK8 protein", "test": "Binding ability test (antibody on aminopropyl sensor, spectral phase difference)", "settings": "fit from binding and dissociation phase difference; read-out: affinity for CK8 protein", "procedure": "Binding ability test: 1 mg of CK8-1R5 monoclonal antibody was taken and dispersed into 1 mL of PBS buffer solution; the prepared antibody dispersion was immobilized on an aminopropyl sensor, the sensor immobilized with the antibody was balanced in PBS buffer and then interact with different concentrations of CK8 protein solutions respectively, and then the spectral phase difference caused by CK8 protein binding to the antibody was recorded. After binding equilibrium, the sensor was placed in PBS buffer, the spectral phase difference caused by protein dissociation from the antibody was recorded, and the antibody's affinity to the protein was fit based on the phase difference."}, "[5]": {"tested_on": "MCF7/MX cells", "test": "Tumor growth in mice subcutaneously inoculated with MCF7/MX cells", "type": "in vivo", "settings": "after 14 days of administration; FIG. 4", "procedure": "MCF-7 was selected as a source cell of a tumor exosome, and the culture medium was DMEM with 10% Fetal bovine serum. After being transferred to a cell incubator (37° C. constant temperature, volume fraction, 5% CO2) for 48 h, the supernatant of tumor cells was collected and gradient centrifuged (2000×g, centrifuge, 20 min, 10000×g, centrifuge for 30 min) to remove cell debris, large vesicles were removed using a 0.22 μm filter; the filtrate was centrifuged for 70 min at 100000×g, the supernatant was discarded and then resuspended with 100 μL of DPBS at the bottom of a centrifuge tube, and the exosomes were recovered and stored at […] in refrigerator for future use. […]\nAfter the inguinal areas of mice were subcutaneously inoculated with 5×10^5 MCF7/MX cells for 7 d, tumor bearing mice were randomly divided into 5 groups according to random number table: blank control group, exosome group loaded with erythromycin, exosome group loaded with CK8-1R5 monoclonal antibody combined with erythromycin, CK8-1R5 monoclonal antibody group, and erythromycin group. […] After 14 days of the first administration, the mice were euthanized and the tumor volume=short diameter^2×Long diameter/2 was measured[…]."}, "[6]": {"settings": "MCF-7/MX cells without inhibitor, drug 48 h"}}, "note": "Read-outs that look alike come from different tables or passages of the source.", "data": [{"molecule": "CC[C@@]1(O)C(=O)OCc2c1cc1n(c2=O)Cc2cc3c(CN(C)C)c(O)ccc3nc2-1", "note": "[Topotecan, topotecan]", "values": [{"measurement": "IC50", "setting": "[1]; [6]", "value": "18 ± 1.34", "unit": "µM"}]}, {"molecule": "O=C1c2c(O)ccc(O)c2C(=O)c2c(NCCNCCO)ccc(NCCNCCO)c21", "note": "[Mitoxantrone, mitoxantrone]", "values": [{"measurement": "IC50", "setting": "[1]; [6]", "value": "25 ± 1.35", "unit": "µM"}]}, {"molecule": "COc1cccc2c1C(=O)c1c(O)c3c(c(O)c1C2=O)C[C@@](O)(C(C)=O)C[C@@H]3O[C@H]1C[C@H](N)[C@H](O)[C@H](C)O1", "note": "[Daunorubicin, daunorubicin]", "values": [{"measurement": "IC50", "setting": "[1]; 48 h", "value": "0.431 ± 0.0102", "unit": "µM"}]}, {"molecule": "B1", "values": [{"measurement": "absorbance (A) value at 405 nm", "setting": "[2]; antibody dilution 1:400", "value": 1.679}, {"measurement": "absorbance (A) value at 405 nm", "setting": "[2]; antibody dilution 1:800", "value": 1.136}, {"measurement": "absorbance (A) value at 405 nm", "setting": "[2]; antibody dilution 1:1600", "value": 0.821}, {"measurement": "absorbance (A) value at 405 nm", "setting": "[2]; antibody dilution 1:3200", "value": 0.596}, {"measurement": "absorbance (A) value at 405 nm", "setting": "[2]; antibody dilution 1:6400", "value": 0.284}, {"measurement": "specificity of binding", "setting": "[3]", "value": "only binds to CK8 protein or MCF7 cell lysate expressing the CK8 protein"}, {"measurement": "Kd", "setting": "[4]", "value": 0.00633, "unit": "µM"}, {"measurement": "tumor volume difference versus blank control group", "setting": "[5]", "value": "no statistically significant difference (P>0.05)"}]}]}
